Experimental data taken from PMC3988174.
Each block holds one binder with its values, some of them ahead of it.

Molecular target: atToc132 G-domain bait (Arabidopsis thaliana) (UniProt Q9SLF3)
Experiment: two-hybrid; pairwise split-ubiquitin yeast two-hybrid of isolated NubG-preys with Toc159G, Toc132G or Toc132AG bait in NMY51; growth on SD-LWHA (3-AT) and quantitative β-Gal assay, activity relative to a reference bait set to 100%

atToc132 G-domain bait (Arabidopsis thaliana), sequence (Q9SLF3 456-794): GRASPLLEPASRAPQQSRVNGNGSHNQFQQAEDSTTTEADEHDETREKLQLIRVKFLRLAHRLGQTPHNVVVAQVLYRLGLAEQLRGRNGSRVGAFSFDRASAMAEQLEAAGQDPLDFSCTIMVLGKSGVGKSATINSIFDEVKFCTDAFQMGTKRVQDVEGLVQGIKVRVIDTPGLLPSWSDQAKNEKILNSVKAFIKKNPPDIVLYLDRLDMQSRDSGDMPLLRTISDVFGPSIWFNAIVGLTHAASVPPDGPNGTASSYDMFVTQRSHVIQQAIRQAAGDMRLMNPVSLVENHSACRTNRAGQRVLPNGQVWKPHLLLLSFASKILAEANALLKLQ

% increase in strength of interaction (β-Gal) with 132G against 159G: 88%
B1: Geranylgeranyl reductase (natural protein)
chain: MLFSGSAIPLSSFCSLPEKPHTLPMKLSPAAIRSSSSSAPGSLNFDLRTYWTTLITEINQKLDEAIPVKHPAGIYEAMRYSVLAQGAKRAPPVMCVAACELFGGDRLAAFPTACALEMVHAASLIHDDLPCMDDDPVRRGKPSNHTVYGSGMAILAGDALFPLAFQHIVSHTPPDLVPRATILRLITEIARTVGSTGMAAGQYVDLEGGPFPLSFVQEKKFGAMGECSAVCGGLLGGATEDELQSLRRYGRAVGMLYQVVDDITEDKKKSYDGGAEKGMMEMAEELKEKAKKELQVFDNKYGGGDTLVPLYTFVDYAAHRHFLLPL

% increase in strength of interaction (β-Gal) with 132G against 159G: 20%
B2: Oxygen-evolving enhancer protein 3-2 (natural protein)
chain: MAQAVTSMAGLRGASQAVLEGSLQINGSNRLNISRVSVGSQRTGLVIRAQQNVSVPESSRRSVIGLVAAGLAGGSFVKAVFAEAIPIKVGGPPLPSGGLPGTDNSDQARDFSLALKDRFYIQPLSPTEAAARAKDSAKEIINVKSFIDKKAWPYVQNDLRLRASYLRYDLNTVISAKPKEEKQSLKDLTAKLFQTIDNLDYAARSKSSPDAEKYYSETVSSLNNVLAKLG

% increase in strength of interaction (β-Gal) with 132G against 159G: 19.6%
B3: Tryptophan synthase, beta subunit 1 (natural protein)
chain: MAASGTSATFRASVSSAPSSSSQLTHLKSPFKAVKYTPLPSSRSKSSSFSVSCTIAKDPPVLMAAGSDPALWQRPDSFGRFGKFGGKYVPETLMHALSELESAFYALATDDDFQRELAGILKDYVGRESPLYFAERLTEHYRRENGEGPLIYLKREDLNHTGAHKINNAVAQALLAKRLGKKRIIAETGAGQHGVATATVCARFGLECIIYMGAQDMERQALNVFRMRLLGAEVRGVHSGTATLKDATSEAIRDWVTNVETTHYILGSVAGPHPYPMMVRDFHAVIGKETRKQALEKWGGKPDVLVACVGGGSNAMGLFHEFVNDTEVRMIGVEAAGFGLDSGKHAATLTKGDVGVLHGAMSYLLQDDDGQIIEPHSISAGLDYPGVGPEHSFFKDMGRAEYYSITDEEALEAFKRVSRLEGIIPALETSHALAYLEKLCPTLSDGTRVVLNFSGRGDKDVQTVAKYLDV

% increase in strength of interaction (β-Gal) with 132G against 159G: 28.9%
B4: Photosystem II subunit T (natural protein)
chain: MASMTMTATFFPAVAKVPSATGGRRLSVVRASTSDNTPSLEVKEQSSTTMRRDLMFTAAAAAVCSLAKVAMAEEEEPKRGTEAAKKKYAQVCVTMPTAKICRY

% increase in strength of interaction (β-Gal) with 132G against 159G: 44.7%
B5: 5′-Adenylylsulfate reductase 2 (natural protein)
chain: MALAVTSSSTAISGSSFSRSGASSESKALQICSIRLSDRTHLSQRRYSMKPLNAESHSRSESWVTRASTLIAPEVEEKGGEVEDFEQLAKKLEDASPLEIMDKALERFGDQIAIAFSGAEDVALIEYARLTGKPFRVFSLDTGRLNPETYRLFDAVEKQYGIRIEYMFPDAVEVQALVRNKGLFSFYEDGHQECCRVRKVRPLRRALKGLKAWITGQRKDQSPGTRSEIPIVQVDPVFEGLDGGVGSLVKWNPLANVEGADVWNFLRTMDVPVNALHAQGYVSIGCEPCTRPVLPGQHEREGRWWWEDAKAKECGLHKGNIKEEDGAADSKPAAVQEIFESNNVVALSKGGVENLLKLENRKEAWLVVLYAPWCPFCQAMEASYIELAEKLAGKGVKVAKFRADGEQKEFAKQELQLGSFPTILLFPKRAPRAIKYPSEHRDVDSLMSFVNLLR

% increase in strength of interaction (β-Gal) with 132G against 159G: 49.3%
B6: Sugar transporter EDR6-like 7 (natural protein)
chain: MSKASDAVREPLVDKNMAGSKPDQPWMVYLSTFVAVCGSFAFGSCAGYSSPAQAAIRNDLSLTIAEFSLFGSLLTFGAMIGAITSGPIADLVGRKGAMRVSSAFCVVGWLAIIFAKGVVALDLGRLATGYGMGAFSYVVPIFIAEIAPKTFRGALTTLNQILICTGVSVSFIIGTLVTWRVLALIGIIPCAASFLGLFFIPESPRWLAKVGRDTEFEAALRKLRGKKADISEEAAEIQDYIETLERLPKAKMLDLFQRRYIRSVLIAFGLMVFQQFGGINGICFYTSSIFEQAGFPTRLGMIIYAVLQVVITALNAPIVDRAGRKPLLLVSATGLVIGCLIAAVSFYLKVHDMAHEAVPVLAVVGIMVYIGSFSAGMGAMPWVVMSEIFPINIKGVAGGMATLVNWFGAWAVSYTFNFLMSWSSYGTFLIYAAINALAIVFVIAIVPETKGKTLEQIQAIVNP

% increase in strength of interaction (β-Gal) with 132G against 159G: 27.8%
B7: Putative 3-dehydroquinate synthase (natural protein)
chain: MAANTISLSNVAASKNLNSFQSRAFIAPPTIFFPVASAKSKPGELSLSSTTLSRSRVRAGASQLMNEPLNDQRSISSPTVVEVDLGDRSYPIYIGAGLLDHSELLQRHVHGKRVLVVTNDRVAPLYLDKTIDALTRGNPNVTVESVILPDGEKYKDMDTLMKVFDKAIESRLDRRCTFVALGGGVIGDMCGYAAASYLRGVNFIQIPTTVMAQVDSSVGGKTGINHRLGKNLIGAFYQPQCVLVDTDTLNTLPDREMASGLAEVIKYGLIRDAEFFEWQEKNIEALLARDPAALAFAIKRSCENKADVVSQDEKESGLRATLNLGHTFGHAIETGFGYGEWLHGEAVAAGTVMAVDMSYRLGWIDESIVKRVNKILVRAKLPTTPPESMTVSMFKSIMAVDKKVADGLLRLILLKGPLGNCVFTGDYDREALDATLRAFSKS

% increase in strength of interaction (β-Gal) with 132G against 159G: 41.1%
B8: Small GTP-binding protein (natural protein)
chain: MAMASAMDLSSPPTFFLSGTSTSSPSLRRLSSISVSGFRRHSNRKLQILCQATAGTEPQSGLSVSGSKLAARSGQDRLLKVPISNIRNFSIIAHIDHGKSTLADKLLQVTGTVQNRDMKEQFLDNMDLERERGITIKLQAARMRYVYEDTPFCLNLIDTPGHVDFSYEVSRSLAACEGALLVVDASQGVEAQTLANVYLALENNLEIIPVLNKIDLPGAEPEKVLREIEEVIGLDCSKAIFCSAKEGIGITEILDAIVQRIPAPLDTAGKPLRALIFDSYYDPYRGVIVYFRVIDGKVKKGDRIFFMASGKDYFADEVGVLSPNQIQVDELYAGEVGYIAASVRSVADARVGDTITHYSRKAESSLPGYEEATPMVFCGLFPVDADQFPDLRDALEKLQLNDAALKFEPETSSAMGFGFRCGFLGLLHMEIVQERLEREYNLNLITTAPSVVYRVNSVNGDTTLCSNPSRLPDPGQRKSVEEPYVKIELLTPKDYIGALMELAQERRGEFKEMKYIAENRASILYELPLAEMVGDFFDQLKSRTKGYASMEYSVIGYRESDLIKLDILINAEMVEPLSTIVHRDKAYSVGRALTQKLKELIPRQMFKVPIQACIGSKVIASEALSAIRKDVLAKCYGGDISRKKKLLKKQAAGKKRMKAIGRVDVPQEAFMAVLKLEREVL

% increase in strength of interaction (β-Gal) with 132G against 159G: 41%
B9: Translationally controlled tumor protein (natural protein)
chain: MLVYQDLLTGDELLSDSFPYKEIENGILWEVEGKWVTVGAVDVNIGANPSAEEGGEDEGVDDSTQKVVDIVDTFRLQEQPTYDKKGFIAYIKKYIKLLTPKLSEEDQAVFKKGIEGATKFLLPRLSDFQFFVGEGMHDDSTLVFAYYKEGSTNPTFLYFAHGLKEVKC

% increase in strength of interaction (β-Gal) with 132G against 159G: 29.9%
B10: Protein LURP-one-related 15 Protein (natural protein)
chain: MEQPYVYAYPQGSGPSGAPTPQAGGVVVDPKYCAPYPIDMAIVRKMMSLTDGNFVITDVNGNLLFKVKEPVFGLHDKRVLLDGSGTPVVTLREKMVSMHDRWQVFRGGSTDQRDLLYTVKRSSMLQLKTKLDVFLGHNKDEKRCDFRVKGSWLERSCVVYAGESDAIVAQMHRKHTVQSVFLGKDNFSVTVYPNVDYAFIASLVVILDDVNREDRAA

% increase in strength of interaction (β-Gal) with 132G against 159G: 42.1%
B11: Chloroplast chaperonin 10 (natural protein)
chain: MASTFVCSLPNPFFAFPVKATTPSTANHTLLGSRRGCLRIKAISTKWEPTKVVPQADRVLVRLEDLPIKSSGGVLLPKAAVKFERYLTGEIISVGSEVGQQVGPGKRVLFSDVSAYEVDLGTDARHCFCKESDLLALVE

% increase in strength of interaction (β-Gal) with 132G against 159G: 99.5%
B12: Fe superoxide dismutase 1 (natural protein)
chain: MAASSAVTANYVLKPPPFALDALEPHMSKQTLEFHWGKHHRAYVDNLKKQVLGTELEGKPLEHIIHSTYNNGDLLPAFNNAAQAWNHEFFWESMKPGGGGKPSGELLALLERDFTSYEKFYEEFNAAAATQFGAGWAWLAYSNEKLKVVKTPNAVNPLVLGSFPLLTIDVWEHAYYLDFQNRRPDYIKTFMTNLVSWEAVSARLEAAKAASA

% increase in strength of interaction (β-Gal) with 132G against 159G: 91.5%
B13: Lactoylglutathionelyase (natural protein)
chain: MASEARESPANNPGLSTNRDEATKGYIMQQTMFRIKDPKASLDFYSRVLGMSLLKRLDFSEMKFSLYFLGYEDTTTAPTDPTERTVWTFGQPATIELTHNWGTESDPEFKGYHNGNSEPRGFGHIGVTVDDVHKACERFEELGVEFAKKPNDGKMKNIAFIKDPDGYWIEIFDLKTIGTTTVNAA

% increase in strength of interaction (β-Gal) with 132G against 159G: 52%
B14: Glutathione S-transferase PHI 2 (natural protein)
chain: MAGIKVFGHPASIATRRVLIALHEKNLDFELVHVELKDGEHKKEPFLSRNPFGQVPAFEDGDLKLFESRAITQYIAHRYENQGTNLLQTDSKNISQYAIMAIGMQVEDHQFDPVASKLAFEQIFKSIYGLTTDEAVVAEEEAKLAKVLDVYEARLKEFKYLAGETFTLTDLHHIPAIQYLLGTPTKKLFTERPRVNEWVAEITKRPASEKVQ

% increase in strength of interaction (β-Gal) with 132G against 159G: 39.8%
B15: GLNB1-like protein (natural protein)
chain: MAASMTKPISITSLGFYSDRKNIAFSDCISICSGFRHSRPSCLDLVTKSPSNNSRVLPVVSAQISSDYIPDSKFYKVEAIVRPWRIQQVSSALLKIGIRGVTVSDVRGFGAQGGSTERHGGSEFSEDKFVAKVKMEIVVKKDQVESVINTIIEGARTGEIGDGKIFVLPVSDVIRVRTGERGEKAEKMTGDMLSPS

% increase in strength of interaction (β-Gal) with 132G against 159G: 30.7%
B16: MPBQ/MSBQ methyl transferase (natural protein)
chain: MASLMLNGAITFPKGLGSPGSNLHARSIPRPTLLSVTRTSTPRLSVATRCSSSSVSSSRPSAQPRFIQHKKEAYWFYRFLSIVYDHVINPGHWTEDMRDDALEPADLSHPDMRVVDVGGGTGFTTLGIVKTVKAKNVTILDQSPHQLAKAKQKEPLKECKIVEGDAEDLPFPTDYADRYVSAGSIEYWPDPQRGIREAYRVLKIGGKACLIGPVYPTFWLSRFFSDVWMLFPKEEEYIEWFKNAGFKDVQLKRIGPKWYRGVRRHGLIMGCSVTGVKPASGDSPLQLGPKEEDVEKPVNNPFSFLGRFLLGTLAAAWFVLIPIYMWIKDQIVPKDQPI

% increase in strength of interaction (β-Gal) with 132G against 159G: 74.4%
B17: CCR-like protein (natural protein)
chain: MQGALFIKPTILLPLPSSVSSPKLTFLLPHATKASRLSSLRSNNSSSSSSLTSDPNTVDYNSSILSVFPAEACEVISGYACSADIYPEVKLDTKPVSRPVASEPVDREYEEYNSPKTVFREEACDDLGGEFCEPDFQKDAN
